The values that follow come from paper PMC5785985, “Molecular snapshots of APE1 proofreading mismatches and removing DNA damage”.

Data set [1] has as its target T1, APE1 (ΔAPE1 C138A) (Homo sapiens, UniProt P27695 44-318, C138A). In words: X-ray crystallography (2.6 Å); Crystallization: 7-14% PEG 20K, 100 mM sodium citrate pH 5.0, 15% glycerol, 5 mM CaCl2, 20 °C; 0.56 mM DNA, 10-12 mg/ml APE1; data at 100 K. The settings on record: protein: recombinant; nicked duplex, three strands 1:1:1, blunt ends, fully paired.
Data set [2] deals with T1, APE1 (ΔAPE1 C138A). In words: X-ray crystallography; 5 mM CaCl2, no metal resolved; Crystallization: 7-14% PEG 20K, 100 mM sodium citrate pH 5.0, 15% glycerol, 5 mM CaCl2, 20 °C; 0.56 mM DNA, 10-12 mg/ml APE1; data at 100 K. As to conditions: protein: recombinant; nicked duplex, three strands 1:1:1, blunt ends, C/T mismatch at 3' end of nick.
Data set [3] deals with T1, APE1 (ΔAPE1 C138A). In words: X-ray crystallography (2.3 Å); MgCl2 soak 2.5 h, no metal resolved; Crystallization: 7-14% PEG 20K, 100 mM sodium citrate pH 5.0, 15% glycerol, 5 mM CaCl2, 20 °C; 0.56 mM DNA, 10-12 mg/ml APE1; data at 100 K. As to conditions: protein: recombinant; 1-nt gapped duplex, three strands, blunt ends.
Data set [4] addresses T1, APE1 (ΔAPE1 C138A). The data set can be described thus: X-ray crystallography (2.10 Å); no metal resolved; Crystallization: 7-14% PEG 20K, 100 mM sodium citrate pH 5.0, 15% glycerol, 5 mM CaCl2, 20 °C; 0.56 mM DNA, 10-12 mg/ml APE1; data at 100 K. As to conditions: protein: recombinant; nicked duplex, three strands 1:1:1, blunt ends, C/T mismatch at 3' end of nick.
Data set [5] concerns the target APE1 F266A (ΔAPE1 C138A F266A) (Homo sapiens, UniProt P27695 44-318, C138A;F266A). In words: X-ray crystallography; Crystallization: 7-14% PEG 20K, 100 mM sodium citrate pH 5.0, 15% glycerol, 5 mM CaCl2, 20 °C; 0.56 mM DNA, 10-12 mg/ml APE1; data at 100 K. The settings on record: protein: recombinant; nicked duplex, three strands 1:1:1, blunt ends, C/T mismatch at 3' end of nick.

T1 sequence (P27695 44-318 C138A): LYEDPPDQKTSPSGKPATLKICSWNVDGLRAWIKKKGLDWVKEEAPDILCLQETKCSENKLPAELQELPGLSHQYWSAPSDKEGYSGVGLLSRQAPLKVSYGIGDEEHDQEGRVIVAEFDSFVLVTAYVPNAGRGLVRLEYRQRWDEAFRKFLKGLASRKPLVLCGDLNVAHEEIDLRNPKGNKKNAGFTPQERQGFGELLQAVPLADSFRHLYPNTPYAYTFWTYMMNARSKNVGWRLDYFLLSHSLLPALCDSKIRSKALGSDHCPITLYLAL
Chain of APE1 F266A (ΔAPE1 C138A F266A) (P27695 44-318 C138A/F266A): as the sequence (P27695 44-318 C138A) above, with F223A counted along it

B1: 21-mer nicked duplex, 3' C/G match (dsDNA)
DNA 1: GGATCCGTCGAGCGCATCAGC
DNA 2: GCTGATGCGC
DNA 3: TCGACGGATCC
modifications: 5'-phosphate on strand 3
In the case of B1, in the data set with APE1 (ΔAPE1 C138A) [1], the binding result is recorded as “binds”.

B2: 21-mer nicked duplex, 3' C/T mismatch (dsDNA)
DNA 1: GGATCCGTCGATCGCATCAGC
DNA 2: GCTGATGCGC
DNA 3: TCGACGGATCC
modifications: 5'-phosphate on strand 3
For B2, the binding result with APE1 (ΔAPE1 C138A) [2] is listed as “binds”.

B3: 21-mer duplex with 1-nt gap (exo product) (dsDNA)
DNA 1: GGATCCGTCGATCGCATCAGC
DNA 2: GCTGATGCG
DNA 3: TCGACGGATCC
modifications: 5'-phosphate on strand 3; 3'-OH on strand 2
On to B3, for which the binding result in the data set with APE1 (ΔAPE1 C138A) [3] is “binds”.

B4: 21-mer nicked duplex, 3' C/T mismatch, phosphorothioate (dsDNA)
DNA 1: GGATCCGTCGATCGCATCAGC
DNA 2: GCTGATGCGC
DNA 3: TCGACGGATCC
modifications: phosphorothioate 5' to the 3'-terminal C of strand 2 (Sp and Rp); 5'-phosphate on strand 3
For the molecule B4, the binding result with APE1 (ΔAPE1 C138A) [4] was “binds”.

B5: 21-mer nicked duplex, 3' C/T mismatch (F266A crystal) (dsDNA)
DNA 1: GGATCCGTCGATCGCATCAGC
DNA 2: GCTGATGCGC
DNA 3: TCGACGGATCC
modifications: 5'-phosphate on strand 3; phosphorothioate not stated for this crystal
As to B5, the binding result in data set [5] is “binds”.
